The target of experiment [1] is T1, mouse SIRPA expressed on CHO cells (mouse, UniProt P97797 32-513).
T1 construct: also called CHO-mSIRPA; CHO-MuSIRPα
T1 sequence: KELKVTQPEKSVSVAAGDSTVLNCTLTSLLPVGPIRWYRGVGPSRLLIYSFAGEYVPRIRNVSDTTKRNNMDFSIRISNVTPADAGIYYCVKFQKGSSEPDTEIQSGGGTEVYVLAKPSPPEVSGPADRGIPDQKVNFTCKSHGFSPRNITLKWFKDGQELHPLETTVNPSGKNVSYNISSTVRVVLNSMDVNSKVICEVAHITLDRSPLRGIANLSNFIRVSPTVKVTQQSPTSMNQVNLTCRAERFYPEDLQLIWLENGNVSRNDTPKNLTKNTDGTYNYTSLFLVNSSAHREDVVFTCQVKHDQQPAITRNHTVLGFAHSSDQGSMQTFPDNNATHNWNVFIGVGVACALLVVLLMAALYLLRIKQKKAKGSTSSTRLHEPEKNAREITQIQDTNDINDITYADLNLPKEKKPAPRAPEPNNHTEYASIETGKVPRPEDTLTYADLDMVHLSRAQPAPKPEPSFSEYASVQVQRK
The experiment in a line: flow cytometry on CHO-MuSIRPα cells. (In general: In flow cytometry, cells or beads pass a laser one at a time.)

Experiment [2] has as its target T2, human SIRPA expressed on cells (human, UniProt P78324 31-504). The experiment in a line: flow cytometry on CHO-HuSIRPα cells. The protocol:
Initial characterization of SIRPA antibodies involved screening their ability to bind the human receptor ectopically expressed on the rodent Chinese hamster ovary cell line, henceforth referred to as CHO-huSIRPA, followed by screening on primary human macrophages. Cells were harvested, plated at 10⁵ cells/well in a 96-well plate, washed, and incubated in 100 μl FACS buffer containing Fc blocking reagent and […] of indicated monoclonal antibody. Cells were then washed twice and incubated in FACS buffer containing APC-conjugated secondary antibody diluted 1:200 for 30 minutes on ice. Cells were washed twice in cold FACS buffer and acquired on a BD FACS Canto. Data analysis and calculation of mean fluorescence intensity (MFI) values or % positive cells was performed with FlowJo (TreeStar) software version 10.0.7.

The target of experiment [3] is T2, human SIRPA expressed on cells. The experiment can be described thus: flow cytometry titration on CHO-huSIRPA cells at 4 C. The protocol: Serial dilutions of monoclonal antibodies were added to 10⁵ CHO-huSIRPA cells and allowed to achieve binding equilibrium at 4° C. After addition of fluorescently labeled secondary antibody and brief washing steps, MFI values as a function of titrated antibody concentration was recorded via FACS analysis (FIG. 3D). Curves were fit using nonlinear regression analysis with Graphpad Prism 6 software.

Experiment [4] deals with T3, recombinant soluble human SIRPA antigen, His-tagged (human, UniProt P78324 31-373).
T3 construct: also called His-tagged soluble HuSIRPA protein; monomeric human SIRPA antigen; not shown: His tag
The experiment can be described thus: SPR, Biacore T200, antibody captured by anti-mouse IgG on CM5, soluble human SIRPA in solution, 1:1 fit. Here is the method:
Binding studies were performed using a Biacore T200 (GE). An anti-mouse IgG capture antibody was amine coupled to a CM5 sensor chip using standard NHS/EDC activation. SIRPA antibodies were diluted to 50 nM in 1×HBS-EP+ running buffer and captured onto sensor chip surface. Serial dilutions of recombinant soluble human SIRPA antigen were injected over captured SIRPA antibodies to record sensorgram traces. Data were processed by subtracting RU values from the reference cell as well as the buffer injections.

For experiment [5], the target named is T2, human SIRPA expressed on cells. The experiment in a line: cell-based or functional assay.
For experiment [6], the target named is T4, human SIRPA-DAP12 chimera expressed on BWZ/NFAT-luciferase reporter cells (human, UniProt O43914 62-113, limits assumed).
T4 construct: domain: intracellular ITAM motif; The intracellular ITIM motif of SIRPA was substituted with the intracellular ITAM motif of DAP12; also called BWZ-huSIRPA; BWZ-HuSIRPA
The experiment can be described thus: flow cytometry on BWZ-Human SIRPA cells, titrated antibody detected with anti-mouse IgG APC (Relative MFI).

Experiment [7] addresses T1, mouse SIRPA expressed on CHO cells. The experiment can be described thus: flow cytometry on CHO-mSIRPA cells.

T2 sequence (P78324 31-504): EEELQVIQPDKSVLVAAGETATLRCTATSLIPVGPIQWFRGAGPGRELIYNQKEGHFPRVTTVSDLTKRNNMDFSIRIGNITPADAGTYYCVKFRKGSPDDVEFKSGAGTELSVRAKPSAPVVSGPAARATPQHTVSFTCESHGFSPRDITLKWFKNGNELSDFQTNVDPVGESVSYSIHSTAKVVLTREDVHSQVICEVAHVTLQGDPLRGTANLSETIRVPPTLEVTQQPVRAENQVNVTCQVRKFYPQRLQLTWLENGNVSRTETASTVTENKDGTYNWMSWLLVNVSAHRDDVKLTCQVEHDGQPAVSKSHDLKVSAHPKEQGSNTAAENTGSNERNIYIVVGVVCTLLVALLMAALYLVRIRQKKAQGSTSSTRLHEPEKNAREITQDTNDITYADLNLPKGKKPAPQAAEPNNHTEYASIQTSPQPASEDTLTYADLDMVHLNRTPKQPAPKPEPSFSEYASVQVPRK
T3 sequence (P78324 31-373 limits assumed): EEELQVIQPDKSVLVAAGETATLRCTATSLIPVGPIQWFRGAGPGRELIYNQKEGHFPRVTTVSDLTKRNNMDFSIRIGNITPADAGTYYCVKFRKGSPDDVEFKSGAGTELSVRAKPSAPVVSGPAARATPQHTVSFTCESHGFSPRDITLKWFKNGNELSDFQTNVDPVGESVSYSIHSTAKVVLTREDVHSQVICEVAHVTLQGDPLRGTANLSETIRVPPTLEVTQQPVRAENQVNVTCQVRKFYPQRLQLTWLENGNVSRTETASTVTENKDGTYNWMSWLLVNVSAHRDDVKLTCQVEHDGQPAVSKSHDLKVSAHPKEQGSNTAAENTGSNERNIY

For mouse IgG1 isotype control (antibody), the MFI, fold over background (fold over background) in experiment [1] and in experiment [2] was 1 each time.

B1: 3F9 (antibody, IgG1, V domains shown)
VH: EVKLVESGGGLVKPGGSLKLSCAASGFTFSSYAMSWVRQTPEKRLEWVATISDYGGSYTYYPDSVKGRFTISRDNAKYTLYLQMSSLRSEDTALYYCARPPYDDYYGGFAYWGQGTLVTVSA
VL: DIVLTQSPASLAVSLGQRATISCRASKSVSSSGYSYMHWYQQKPGQPPKLLIYLASNLESGVPARFSGSGSGTDFTLNIHPVEEEDAATYYCQHNRELPCTFGGGTKLEIK
notes: also called anti-SIRPA antibody 3F9; glycosylated 3F9
On to B1, for which the “MFI, fold over background” value in experiment [1] is 0.998 fold over background. In experiment [3], a half-maximal effect (EC50) was put at 2.6 nM. In experiment [4], the dissociation constant Kd (as a rule, the constant that tells how readily two partners part at equilibrium) was 10 nM; the koff (usually the first-order rate constant of dissociation) is 0.00057 s⁻¹; the kon (as a rule, a measure of how fast the partners come together) was 55000 M⁻¹ s⁻¹. Moreover, in experiment [5], the “phagocytic activity of treated macrophages (FIG. 8C)” value amounted to 2 fold and the “phagocytosis of labeled Raji cells: CD14+/pHrodo+ macrophages over isotype-treated macrophages” value was determined as 2.5 fold. Moreover, the EC50 (read off the curve) (usually the midpoint of the concentration-response curve) in experiment [6] is around 1 nM. In addition, in experiment [2], the “MFI, fold over background” value came out at 137 fold over background. In experiment [7], the binding result is listed as “no binding (tested: 1.0 pg/ml (so in the source))”.

B2: deglycosylated 3F9 (antibody, IgG1, V domains shown)
VH: EVKLVESGGGLVKPGGSLKLSCAASGFTFSSYAMSWVRQTPEKRLEWVATISDYGGSYTYYPDSVKGRFTISRDNAKYTLYLQMSSLRSEDTALYYCARPPYDDYYGGFAYWGQGTLVTVSA
VL: DIVLTQSPASLAVSLGQRATISCRASKSVSSSGYSYMHWYQQKPGQPPKLLIYLASNLESGVPARFSGSGSGTDFTLNIHPVEEEDAATYYCQHNRELPCTFGGGTKLEIK
modifications: Fc-linked glycan removed with EndoS (on the heavy chain constant region, which is not given)
notes: also called deglycosylated 3F9 variant; deglycosylated form of 3F9
With B2, in experiment [6], the “EC50 (read off the curve)” value was around 1 nM.

B3: 9C2 (antibody, IgG1, V domains shown)
VH: EFQLQQSGAELVKPGASVKISCKASGYSLTGYNMNWVKQSRGKSLEWIGNINPHYGSSTYNQNFKDKATLTVDKSSSAAYMQFNSLTSEDSAVYYCAREGYDGVFDYWGQGTTLTVSS
VL: QIVLSQSPAILSASPGEKVTMTCRASSSVSYMHWYQQKPGSSPKPWIYVTSNLASGVPTRFSGSGSGTSYSLTISRVEAEDAATYYCQQWSSNPRTFGGGTKLEIK
notes: also called anti-SIRPA antibody 9C2; 9C2-DyLight 650
As for B3, the “MFI, fold over background” value in experiment [1] is 0.981 fold over background. The 50% effective concentration (EC50) – broadly, the concentration needed to bring the measured effect to its halfway point – in experiment [3] was determined as 1.6 nM. In addition, in experiment [4], the Kd was found to be 80 nM, the koff was 0.0045 s⁻¹ and the kon is 54000 M⁻¹ s⁻¹. Besides, in experiment [5], the “phagocytosis of labeled Raji cells: CD14+/pHrodo+ macrophages over isotype-treated macrophages” value was 1.5 fold. The “MFI, fold over background” value in experiment [2] came out at 128 fold over background. Also, the binding result in experiment [7] was “no binding (tested: 1.0 pg/ml (so in the source))”.

The values are drawn from patent publication US20250144209A1 (Alector, published 2025).
